experiment: soluble on expression in E. coli; label from the status in PepcDB or PDB records

Sequence | soluble on expression in E. coli
IDRKVLSQLRNRFLSLNDGRYARALEGMSTRQQSVLTLLPLFFHVNHPLLPGYVSGSTPAGVSHYEPDTLALAEAQRLTRSFSYKARHGNPPQPIHGLFLMGSLGTLAQADQSDMDVWVCHDSELDLEAIAELRKKCQALEAWAATMGAEAHFFLIDPQRFKSGERDSQLSSDDCGTTQHYLLLDEFYRTAIWLAGRTPMWWMVPVYEEQNYEDYTYTLLSKRFIRASEVLDLGPMSHIPATEFIGAGLWQLFKGIGSPYKSVLKLLLIEVYSSEHPRVQCLSLRFKQAVFANQLDLDELDPYVVVYRRIEEHLQARNEPERLELVRRSLYLKVNKKLTGSTRQRNIGWQRLLLARLTSEWGWDERQLTLLDSRSQWKVRQVASERRALVNELNYSYRFQTRFARAQSTADTLDARDLTILGRRLYAAYERKAGKVEFINPGIAPDLAEDTLTLVHSPDKREPGKHQWALYNGNLGIHEWANFSPIKRSRELLELLAWCHRNNVIDTTTRVALHPGTSDLSEFELFNLLGALQQSIELPLPEVSDDELLKPSAPSEILLLINVGVDPLRHHRDLNILMTTERTDSLSYAGVRENLVLTLDQITLNTWNETLVSRYDGPHALLDCMSELLGSLPTSGKQPQIRVRCFCHNRASAIAQRVEELISTAQLLLARQLNHRYLIQVQQQYHVLEIKPGQVGHVVVNSLPGLFKYLGEELPRYSPLHLDPQALDGHDLALILPLGQPECIQVFYRINEPDADLYVLDEHNSLWHQRVPYHDEQSLLTPLQRFFHSLVYRRGASLPLDD | not soluble
MTTARWVIDKHLQNFHILCKFAGILKTNSFISVEDKAKLSEKLEKLDLYHRRNTGKSLDATTHKIKELSFYMFGYRDVCGQVTQKFLFSPLGNLFLKHLDNNEYIQKIFLTMLWAIPFPHPYIKTDESIQLYPMRLIFKLLSDERLDCKLFSYEYIYLISFVKSADQNSYEKLVQDILVLRTCAEVKIKHQLTAENSRSHAYVNAAHEWESYFSKTLTDAGVLQKTDGKIICRLKHGKTETYRKVTSSEFSIPKQLQEFVKKLQSAYSFSEMPLNLNDSDRLKIDVIKEIYSFYPKELLEEIGELKDEAAYELLHLPRLIEQYADNNNGTEAYLFEDVLEMGFNMFYNVEAKKIGGPGNTDLECLYITQKRKFAVEAKSTKNKLSGINSGRLEDHKNKIKAIYTIVVTPRYVPAVLSDIRNCPIVIIRANTFAEFLYNCLINRSSIPEIDYRYFDEIIIKNLGKDISSEISNLTMQQFASNTTMEAYST | not soluble
PVTSISHEQLQQVHAEAGLTIALSTSVGDDLFYVDHVSSEPEYAYLAENRLRRSLLRTSAGWLLLADREQRDIWAYLNSRPVADADYIEQFLYALEALRATGVCAAPGVAVEHGDGVSVALRERGRTIATLGVVGVRETIIERRDELAKICLRHAEEWGFR | soluble
MPVFSINVNVKVPAEKQNEILKELSTVLGKLLNKPEQYMCIHFHEDQGILYAGTTEPAGFAVLKSIGGVGSAKQNNAISAVVFPIIEKHLGIPGNRLYIEFVNLGAADIAYNGQTFA | not soluble
MGSDKIHHHHHHMQDKNFDKLAQKFAKNIYGTPKGEIRAAVLWRDLAPALAQFGDKKLRILDAGGGFGYFSQKLARLGHEVVLCDISAEMLAQAKEQIDASDTPLAIRLVHAPIQALSITEHGMFDLILCHAVVEWLADAKTTMEGLLTMLKPNGLFSLMFYNKEAMRFHALVSGNFDYVAADLKVKKKVRLTPTHPLYIHEVKLWFAQWQMALLKESGVRVIHDYLKKQQAADFDYQKLLSMELEYSQREPYISLGRYVHFLGQSTATHSE | not soluble
MKVFLYDTNLILASRVRSLLSSQGFEISDKEEACAGVVNLESPKGLEVVKELKEKGKKVVGYCGHKNVPLIQKAKELGVDEVIPNSQVVTSLGEILKKLCS | not soluble
MNEDNSQNSEGPSRKSFFERLSQLFQGEPKDRQELVDVIRDSEVNDLIDHDTRDMLEGVMEIAEMRVRDIMIPRSQMVTIDRTHNLDALVAIMTDAQHSRYPVISEDKDHVEGILLAKDLLKYLGSNCAPFNIQEVIRPAVVVPESKRVDRLLKEFREERYHMAIVVDEFGGVSGLVTIEDILEEIVGDIEDEFDDEEQKDIRQLSKHTFSVKALTTIEDFNHTFGTKFSDEEVDTVGGLVMTAFGHLPARGEVVDIAGYNFKVTAADSRRVVALQVTVPDLEALSHVAEE | not soluble
MGSDKIHHHHHHCDETELDQTVTNQVNPQKEEDSRIVFNSAKEFYNTLDTLSYMTYEEQTEWIRASGIKYPLYKDLEFCEDEIMTEMPRAFQALFNHKMEMQINDTVIAFEKGNMYVKSIKEKILPVPVLYGQVGVNQEESEVTTRTVYETKYGKIGTSYQYEFKIPEGKSKYKYVHELKSVIIKENLPPYKSWSNLFLVLKLEWKGKKKWKVAEKEERNISIDLNVCKRNLAKVKYNQEIRIDVQNMDSKSHSINIEGYIIHEVVGIPSTKMFNGWSYPLVEWQPR | not soluble
MELSPAERQLLLAHRLAVFDGCVVYDAQPPVSAEHVQRLAEGLAGPIPEDLLRLWRTCFGGRLGYDLEVDYDGHRHPFSFSELFYPDSDGYHDLWGWIEHERELAAEAAAEEGRDWNGKLAYLPFGGFEYLERLYVCVEPGPEHGAVIAWSHGLPPAWAGRLHQDSVTRLADDVGGLFRLLSFEQDPFDAENACGVADELLEALDALEAAGEPGKALKGRLEVLLRQRILDWRPALADGSLAAEPRLRQLALAEAAQDGDIDLLQRLRDAGCDFAETLRGRGGVLEACLARGRLEAARWLLDQGVAVHQDSLQIGAAHLDAVLAERLLRLGAISDPNTVLLALQYGDADAARIMARPLLEESPARANALRLALASRAERERSDARRVRSGKMGSNRSPDDYLALAERLERFLAELPG | not soluble
MNDLKSKSNIKLMKRVLTTYELRKYLKKYFCLTLDNYLVLAYLDVFKNDEGKYFMRDIISYIGIDQSRIVKSVKDLSKKGYLNKCRDPHDSRNVIIVVSVKQHNYIKNLLSEININET | not soluble
MADETPKVKTEPAAEVKSPLDEVKEIRKEAELTQTGSDEKKTTDPEFITVQDPNGDEPIELPTVDGVVLMTTLQASFPGATGLKYKNPKTGANRAVQVDPSGLKLIAPADGWENKTFFVIVAPQSERVRALSSADATSAKRRKVGSSDDSDSDDGRDGRSGRKRAVERDSQPVDLIVLGVDFKTTDECFQKYFEDIGTVVFCEIKRKSDGNSKGFGFVRMSSVGEQNKVLAIPQHMIDGRRCDVKVPDGRDKQGRPSISRIFVGRLTDKVDEHQLRKVFGDEAKSYIETAVVTDVFIPKPFRGFAFVTLSSAEAAERIVSKGSLTVNGLSVGLSIAQPREENNQSVGPDYGLPAGYRNRRERDRPDRRPIQNEAPLPMPFVRPPQDYSYRQQNSPLERRYWAPGDSRGPGW | not soluble
MCTTCGCAEGNLYIEGDEHNPHSAFRSAPFAPAARPALNITGIKTPDFAPSQTAEGDLHYGHGEAGTHAPGMSQRRMLEVEIDVLDKNNRLAERNRARFAARQQLVLNLVSSPGSGKTTLLTETLMKLKDRVPCAVIEGDQQTVNDAARIRATGTPAIQVNTGKGCHLDAQMIADAAPRLPLDDHGILFIENVGNLVCPASFDLGEKHKVAVLSVTEGEDKPLKYPHMFAAASLMLLNKVDLLPYLNFDVEKCIASAREVNPEIEIILISATSGEGMDQWLAWLEAQRCA | not soluble
MQLKRKNSVFIDPRIQEVAGPCEPSDNGNNEEEDKIISIRATASSASITKESVPEAPPTHFIPVVVTVEPDAWEKFRDIIQVNRNIVIVKVGRWLMSSFMPGDQISLVNGTAIWNSDDLENQVRGPKKETKTEVTVIRVWNLKCLTDIQLDKLLVPPEEQLHYFSVKVYSSKGTIGLKLCLDKKRVLVELIRAKTPVNSALLVGDQILGINDELLTAKSKRALRKQVAEVMKKSIKKQGFAEIIACRQVIARSSPAPSLEAELSEKFANYAVGVEKGTRIEKKDSSETNSLPLHSDALEIALRELACLKQWIVESSTEVPPCDKGPTLMIDPPTAPGSAEGCPPPLVKAKSTTNAIERSVYFPLSTTAAVAILVSTPKKRSIFRQQDRNSAINFAEQPDHEKITSDIPEEDDLKKCEPMSGIAAYIKKKFN | not soluble
MGSDKIHHHHHHDANGVKIGVITDMSGSYADLSGKGSVLAAQMAVEEFGGKALGKPVTVLSADHQNKADIASSLARRWFDTDGVDMVIDFPNSSTALAVQEVAKQKQKIDIVSTGGAMALTNQNCSPTGFHWAWDTYSVSYPLVKRMIDQGRNSWYYITVDYAFGQSLEADFRKAVDVSGGKNVGSTKHPLNASDFSSPVVAASASKANVVVLANAGNDMINGVKAAGEFGLVKAGQTVITPSTFITDIKSLGLNTAQGLTYVDPFRLDLDEKSKDFVERYYKRHKAYPTHGQIGVYSGVLHYLKAVEAAKTVDGPAVADKMRALPVNDAFVHNGKVRADGRMVHDMYLAQAKTPAESKGPWDLVKYIATIPGDEAFRPLSASECALVKK | not soluble
MATISSLGSSGLELEGILEKLQAAEEKKLTLITARQASYETRISAYSKIQAAVEAVQKAAATLGSIDTLSAVKAVVSGDGLSVKTAAGAVPGQYTVNIDKLATAQNLQSGELDSRTDKHGTGGSIEIVQKDGTTTTVTLGEDTSLNGIVKAINGTDGLDVRATVISDGNGKHYLMLNNKTEGTEAAVTRITVSGNQEVADILDFDAANAGASNLTVQLAAQKAELTINGIPVVSDTNTVETAIDGLTLTLTKQTAAPLTVTVSSDPSVAATAVNDFVKAYNGLQTTIADLTAFDVKAEKQSALTGDGTTRNIQSAIAAALRVATGEGTLRTLSQLGITTDPKTGSLKTDTEKLEAALRDNPADVARIFSGPFGLGEKVKLATEQILGDEGSIKIRQEGLEETLESLQNQYDRQKLSIAATIEAYRKQFVQLDVFVTQMNNTSNYLSQQFAALSGTKK | not soluble
MKIEEGKVVIWHAMQPNELEVFQSLAEEYMALCPEVEIVFEQKPNLEDALKAAIPTGQGPDLFIWAHDWIGKFAEAGLLEPIDEYVTEDLLNEFAPMAQDAMQYKGHYYALPFAAETVAIIYNKEMVSEPPKTFDEMKAIMEKYYDPANEKYGIAWPINAYFISAIAQAFGGYYFDDKTEQPGLDKPETIEGFKFFFTEIWPYMAPTGDYNTQQSIFLEGRAPMMVNGPWSINDVKKAGINFGVVPLPPIIKDGKEYWPRPYGGVKLIYFAAGIKNKDAAWKFAKWLTTSEESIKTLALELGYIPVLTKVLDDPEIKNDPVIYGFGQAVQHAYLMPKSPKMSAVWGGVDGAINEILQDPQNADIEGILKKYQQEILNNMQG | soluble
MSEQKRRTIQIAISEDHYEELQKALELLKGTQLPFSTTVEQFVELILSNYVATSNKISSLAKSGFDVASLQQELEKIGNLSGVDDNLKGFLSELLKTSRNGFSNPNKDGKKNDDDNNSSSKS | soluble
MRGEVKKIIEAIGDIFIGHEDVIRKVLAVALVNGNILFEDYPGLGKTLLAKAFAKILGLKFKRIQFTPDLLPADIIGTKVWKPEKGAFEVVKGPIFTNILLADEINRAPPKTQSALLEAMEERQVTIEGETFKLERPFFIIATQNPLELEGTYPLPEAQLDRFLVRLNIGYPRNEEDELEILKARLRWGKDDPTSDISPIISREDFIRMQEEVERGVIIHDDILRYIVRLVRRIREDERIEAGPSPRGGLALMKLAKANAFIEGRSYVIPDDVKYFAVEALAHRIVLKPEYSLERGIAEEIIREVLEEVPVPKDIRY | soluble
MAHHHHHHMHDANRFGGRTAYLREIGPIDHKKKGRLFKRDLPTLQFNVDVWCAQQTLRKQWKGRDWDVVEMPFEMAPKELQRVVPEKYTDVPIMTDPARHDYMNIRRKVFDREDMQDALFASGGAGQSPYPAIQRVDKAAMTLDKYL | soluble
